One assay has as its target T1, PDK1-L155E (Homo sapiens, UniProt O15530, L155E).
T1 construct: made in house; host or cells: human embryonic kidney 293 cells
T1 sequence (O15530 1-556 L155E): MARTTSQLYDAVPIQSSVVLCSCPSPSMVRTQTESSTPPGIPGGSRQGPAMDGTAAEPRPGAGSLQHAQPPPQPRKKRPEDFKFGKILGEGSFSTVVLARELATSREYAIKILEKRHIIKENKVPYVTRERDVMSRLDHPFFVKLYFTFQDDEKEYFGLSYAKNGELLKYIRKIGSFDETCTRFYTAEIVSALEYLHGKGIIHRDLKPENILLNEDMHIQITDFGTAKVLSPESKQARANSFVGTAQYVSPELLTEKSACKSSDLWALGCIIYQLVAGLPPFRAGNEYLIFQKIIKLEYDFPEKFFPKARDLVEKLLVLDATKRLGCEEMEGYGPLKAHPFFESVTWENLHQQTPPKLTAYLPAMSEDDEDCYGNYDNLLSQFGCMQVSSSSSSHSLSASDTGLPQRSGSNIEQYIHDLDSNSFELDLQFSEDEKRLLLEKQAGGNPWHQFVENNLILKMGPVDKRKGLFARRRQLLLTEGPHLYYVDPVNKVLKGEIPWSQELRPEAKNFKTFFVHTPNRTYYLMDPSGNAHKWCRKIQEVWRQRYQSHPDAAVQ
Put plainly: Phosphorylation of AGC kinase substrates by PDK1 (32P, PhosphoImager). Type of assay: biochemical. Conditions: PKB[S473D] rate by PDK1-wt = 100. As to the method:
(§1) Phosphorylation of AGC kinase substrates by PDK1. The phosphorylation of PDK1 substrates was performed in a final volume of 20 μl in a buffer containing 50 mM Tris-HCl pH 7.5, 0.1% (by vol) 2-mercaptoethanol, 10 mM magnesium chloride, 100 μM [γ-^32P]ATP (˜1000 c.p.m./pmol), 0.5 μM microcystin-LR, 0.6 μM AGC kinase substrate and 0.6 to 30 nM wild type PDK1 or the indicated mutant of PDK1.
(§2) Relative phosphorylation of PDK1 substrates. PDK1 substrates were phosphorylated in vitro, subjected to SDS-PAGE, and radioactivity associated with the bands measured using a Phospho-Imager and known amounts of ATP as standard. The phosphorylation rate of PKB[S473D] in the presence of PtdIns (3,4,5)P3 was 2.6 mol/mol PDK1/min and was taken as the relative value of 100. Average values from a representative experiment performed in duplicates are shown.

Another assay has as its target T2, PDK1-wt (Homo sapiens, UniProt O15530).
T2 construct: made in house; host or cells: human embryonic kidney 293 cells
T2 sequence (O15530 1-556): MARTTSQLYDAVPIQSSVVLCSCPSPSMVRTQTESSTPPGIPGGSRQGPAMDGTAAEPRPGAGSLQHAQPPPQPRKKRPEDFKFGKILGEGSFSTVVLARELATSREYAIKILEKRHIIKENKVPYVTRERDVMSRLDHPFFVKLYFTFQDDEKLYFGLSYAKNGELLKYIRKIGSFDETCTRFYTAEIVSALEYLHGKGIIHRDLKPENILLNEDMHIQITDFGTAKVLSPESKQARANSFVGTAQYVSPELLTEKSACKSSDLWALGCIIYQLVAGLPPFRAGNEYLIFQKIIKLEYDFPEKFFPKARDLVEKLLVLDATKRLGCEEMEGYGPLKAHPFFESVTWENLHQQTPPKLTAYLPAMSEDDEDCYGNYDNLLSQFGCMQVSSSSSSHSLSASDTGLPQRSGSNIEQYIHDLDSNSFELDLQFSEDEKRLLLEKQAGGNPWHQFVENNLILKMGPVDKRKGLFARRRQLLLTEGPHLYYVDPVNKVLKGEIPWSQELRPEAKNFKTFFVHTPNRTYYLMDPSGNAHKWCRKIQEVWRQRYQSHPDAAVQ
Described as above. The format is biochemical. As for the experimental part: as §1, §2

In the next assay the target is T3, PDK1 (Homo sapiens, UniProt O15530).
T3 construct: Full length PDK1 (residues 1-556); made in house; host or cells: 293 cells
T3 sequence (O15530 1-556): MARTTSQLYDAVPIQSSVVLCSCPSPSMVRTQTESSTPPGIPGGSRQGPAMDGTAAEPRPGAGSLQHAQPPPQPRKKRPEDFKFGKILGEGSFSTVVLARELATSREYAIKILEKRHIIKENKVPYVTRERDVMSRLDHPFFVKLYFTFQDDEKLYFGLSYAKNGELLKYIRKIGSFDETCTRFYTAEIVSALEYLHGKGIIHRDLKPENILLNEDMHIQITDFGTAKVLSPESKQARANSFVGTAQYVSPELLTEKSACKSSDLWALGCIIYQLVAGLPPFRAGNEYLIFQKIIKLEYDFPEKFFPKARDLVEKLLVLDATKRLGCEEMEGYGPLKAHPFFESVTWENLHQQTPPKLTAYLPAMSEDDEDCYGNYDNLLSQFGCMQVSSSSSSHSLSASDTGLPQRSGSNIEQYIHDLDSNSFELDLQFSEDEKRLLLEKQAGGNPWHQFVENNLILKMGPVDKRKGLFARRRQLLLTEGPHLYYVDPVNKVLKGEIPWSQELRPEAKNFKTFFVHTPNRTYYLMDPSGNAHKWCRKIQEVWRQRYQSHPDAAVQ
Put plainly: Glutathione-Sepharose pull-down of PDK1 with S6K1 or SGK1 from 293 cells. Type of assay: binding. As to conditions: GST-SGK1 forms; wild type Myc-PDK1. As to the method:
FIG. 21. Interaction of S6K1 and SGK1 with PDK1. 293 cells were transiently transfected with DNA constructs expressing GST, GST-PDK1 wt or PDK1 L155E together with constructs expressing either wild type or the indicated mutants or truncations of HA tagged S6K1 (A) or wild type GST-ΔN-SGK1 or 422D mutant. 36 h post transfection the cells were lysed and GST fusion protein was purified by affinity chromatography on glutathione-Sepharose beads. Aliquots were electrophoresed on a 10% SDS-polyacrylamide gel, stained with Coomassie Blue, or immunoblotted using an anti-FLAG antibody to detect FLAG-S6K1 and anti-Myc antibody to detect Myc-PDK1. To establish that the wild type and mutant proteins were expressed at similar levels, […] of total lysate was electrophoresed on a 10% SDS-polyacrylamide gel and immunoblotted using the indicated antibodies. Duplicates of each condition are shown. Similar results were obtained in two different experiments.
Binding of PDK1 to SGK1 and S6K1. For the data presented in FIG. 22, 293 cells were cotransfected with 10 μg of the wild type or mutant PDK1 plasmid and 10 μg of either the wild type or mutant S6K1 or SGK1. […] The gels were either stained with Coomassie blue, or analysed by immunoblotting with either anti-Flag or anti-Myc antibodies (described below).

B1: DN-SGK: SGK1 lacking the N-terminal 60 amino acids (protein)
chain: SQPQEPELMNANPSPPPSPSQQINLGPSSNPHAKPSDFHFLKVIGKGSFGKVLLARHKAEEVFYAVKVLQKKAILKKKEEKHIMSERNVLLKNVKHPFLVGLHFSFQTADKLYFVLDYINGGELFYHLQRERCFLEPRARFYAAEIASALGYLHSLNIVYRDLKPENILLDSQGHIVLTDFGLCKENIEHNSTTSTFCGTPEYLAPEVLHKQPYDRTVDWWCLGAVLYEMLYGLPPFYSRNTAEMYDNILNKPLQLKPNITNSARHLLEGLLQKDRTKRLGAKDDFMEIKSHVFFSLINWDDLINKKITPPFNPNVSGPNDLRHFDPEFTEEPVPNSIGKSPDSVLVTASVKEAAEAFLGFSYAPPTDSFL
modifications: left off: a dimerising Fc or GST
notes: SGK1 lacking the N-terminal 60 amino acids
Take B1: the “Relative phosphorylation of PDK1 substrates PDK1-L155E +PIFtide” value with PDK1-L155E (with PIFtide) is given as 2.4. For the same molecule, the “Relative phosphorylation of PDK1 substrates PDK1-L155E —” value with PDK1-L155E (without PIFtide) is given as 3.3. Further, the “phosphorylated at a lower rate than SGK1[T422D]” value with PDK1-wt is listed as 10 fold. Moreover, the “Relative phosphorylation of PDK1 substrates PDK1-wt +PIFtide” value with PDK1-wt (with PIFtide, PKB[S473D] rate with PtdIns(3,4,5)P3 = 100) is recorded as 3.8. Moreover, the “Relative phosphorylation of PDK1 substrates PDK1-wt —” value in the assay with PDK1-wt (without PIFtide, PKB[S473D] rate with PtdIns(3,4,5)P3 = 100) was 8. Also, in the assay with PDK1, the “interaction with Myc-PDK1” value is given as “did not interact”.

The values are drawn from patent US20080009025A1, “PROTEIN KINASE REGULATION” (priority 1999, published 2008).
